Legend:
[1] = target: Mouse CD20 (endogenous, on mouse B cell lines and splenic B cells) (mouse) (UniProt P19437); experiment: flow cytometry on A20 cells; isotype control, PE-anti-mouse IgG2b
[2] = target: Mouse CD20 (endogenous, on mouse B cell lines and splenic B cells) (mouse) (UniProt P19437); experiment: flow cytometry on NS-1 cells; isotype control, PE-anti-mouse IgG2b
[3] = target: Mouse CD20 with C-terminal Idectin peptide tag, on transfected CHO cells (mouse) (UniProt P19437); experiment: flow cytometry on CHO-CD20 cells; isotype control, PE-anti-mouse IgG2b
[4] = target: Mouse CD20 (endogenous, on mouse B cell lines and splenic B cells) (mouse) (UniProt P19437); experiment: flow cytometry on WEHI 279 cells; isotype control, PE-anti-mouse IgG2b
[5] = target: Mouse CD20 (endogenous, on mouse B cell lines and splenic B cells) (mouse) (UniProt P19437); experiment: flow cytometry on BCL 1/3B3 cells; isotype control, PE-anti-mouse IgG2b
[6] = target: Mouse CD20 with C-terminal V5 peptide tag, on transfected 300.18 cells (mouse) (UniProt P19437); experiment: flow cytometry on 300.18-CD20 cells; isotype control, PE-anti-mouse IgG2b
[7] = target: Mouse CD20 (endogenous, on mouse B cell lines and splenic B cells) (mouse) (UniProt P19437); experiment: flow cytometry on wild type C57Bl/6 splenocytes; isotype control, PE-anti-mouse IgG2b
[8] = target: T1, Mouse CD20 with C-terminal Idectin peptide tag, on transfected CHO cells (mouse, UniProt P19437 1-291); experiment: flow cytometry on transfected CHO cells
T1 construct: also called CHO-CD20; CHO cells transfected with mouse CD20; not shown: Idectin peptide tag at the 3' end of the gene (N5K-CtIdectin-B7.1-Ig vector)
T1 sequence: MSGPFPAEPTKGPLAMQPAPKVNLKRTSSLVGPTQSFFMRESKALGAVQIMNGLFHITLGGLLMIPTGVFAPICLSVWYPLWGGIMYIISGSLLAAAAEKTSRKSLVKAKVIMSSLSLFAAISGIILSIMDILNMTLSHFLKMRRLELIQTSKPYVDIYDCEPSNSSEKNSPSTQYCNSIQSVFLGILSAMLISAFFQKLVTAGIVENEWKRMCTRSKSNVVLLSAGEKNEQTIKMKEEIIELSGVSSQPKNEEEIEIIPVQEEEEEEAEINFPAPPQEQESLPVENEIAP
Experimental: (§1) Cell Staining and Flow Cytometry Analyses. All staining procedures were done in round bottom 96-well plates (Corning 3799) in FACS buffer (Dulbecco's PBS supplemented with 2% FBS, 0.05% sodium azide, 10% normal goat serum (heat inactivated), and 2.4G2 (1 ug/ml). None of the monoclonal secondary antibodies used recognized rat IgG2b (the 2.4G2 antibody). Cells (1×10⁵ to 1×10⁶) were incubated with primary or secondary antibodies for 45 minutes each on ice, washed between incubations, and resuspended at 1×10⁶ cells/ml in FACS buffer for analyses. Fluorescence was measured on a FACSArray or FACSCalibur and analyzed with BD FACSArray System Software or Cell Quest Pro software.

[9] = target: T2, Mouse CD20 with C-terminal V5 peptide tag, on transfected 300.18 cells (mouse, UniProt P19437 1-291); experiment: flow cytometry on transfected 300.18 cells
T2 sequence: T1 sequence
Experimental: as §1

[10] = target: T3, Mouse CD20 (endogenous, on mouse B cell lines and splenic B cells) (mouse, UniProt P19437 1-291); experiment: summary of Example 1; flow cytometry on cells
T3 construct: also called mCD20
T3 sequence: T1 sequence
Experimental: as §1

Rat CD20 = target: T4, Rat CD20 (rat, UniProt D4A4Y3 1-287); experiment: flow cytometry staining of rat splenic B cells and two rat B cell lines
T4 construct: whole, on cells; also called CD20 on rat splenic B cells and rat B cell lines
T4 sequence: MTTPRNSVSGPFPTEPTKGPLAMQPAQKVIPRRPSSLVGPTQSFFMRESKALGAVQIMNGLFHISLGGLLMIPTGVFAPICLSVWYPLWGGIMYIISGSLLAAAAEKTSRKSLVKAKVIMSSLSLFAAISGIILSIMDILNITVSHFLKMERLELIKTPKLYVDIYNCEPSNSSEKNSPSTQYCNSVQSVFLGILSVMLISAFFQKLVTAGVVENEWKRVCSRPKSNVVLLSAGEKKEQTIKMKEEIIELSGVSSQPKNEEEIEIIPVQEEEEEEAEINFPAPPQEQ

Molecule: IgG2b isotype control antibody
- geometric mean of fluorescence intensity [1]: 3.4
- geometric mean of fluorescence intensity [2]: 3.8
- geometric mean of fluorescence intensity [3]: 3.6
- geometric mean of fluorescence intensity [4]: 5.9
- geometric mean of fluorescence intensity [5]: 4.2
- geometric mean of fluorescence intensity [6]: 4.1
- geometric mean of fluorescence intensity [7]: 3.8

B1: 18B12 IgG1 mouse anti-mouse CD20 monoclonal antibody (antibody, V domains shown)
VH: QVQLQQPGAELVRPGTSVKLSCKASGYTFTSYWMHWIKQRPGQGLEWIGVIDPSDNYTKYNQKFKGKATLTVDTSSSTAYMQLSSLTSEDSAVYFCAREGYYGSSPWFAYWGQGTLVTVSS
VL: QIVMSQSPAILSASPGEKVTMTCRARSSVSYIHWYQQKPGSSPKPWIYATSNLASGVPGRFSGSGSGTSYSLTITRVEAEDAATYYCQQWSSKPPTFGGGTKLEIKR
modifications: N-terminal pyroglutamic acid (N-terminal glutamine blocked)
notes: also called 18B12 antibody; 18B12-A1C3-H3
- binding result [8]: binds
- binding result [9]: binds
- binding result [10]: binds
- binding result (Rat CD20): no binding

— patent US20070136826A1 (Biogen, published 2007)
